# B1: 1-phosphatidylinositol 4,5-bisphosphate phosphodiesterase gamma-1 (Homo sapiens), P19174 (parent)
# chain: MAGAASPCANGCGPGAPSDAEVLHLCRSLEVGTVMTLFYSKKSQRPERKTFQVKLETRQITWSRGADKIEGAIDIREIKEIRPGKTSRDFDRYQEDPAFRPDQSHCFVILYGMEFRLKTLSLQATSEDEVNMWIKGLTWLMEDTLQAPTPLQIERWLRKQFYSVDRNREDRISAKDLKNMLSQVNYRVPNMRFLRERLTDLEQRSGDITYGQFAQLYRSLMYSAQKTMDLPFLEASTLRAGERPELCRVSLPEFQQFLLDYQGELWAVDRLQVQEFMLSFLRDPLREIEEPYFFLDEFVTFLFSKENSVWNSQLDAVCPDTMNNPLSHYWISSSHNTYLTGDQFSSESSLEAYARCLRMGCRCIELDCWDGPDGMPVIYHGHTLTTKIKFSDVLHTIKEHAFVASEYPVILSIEDHCSIAQQRNMAQYFKKVLGDTLLTKPVEISADGLPSPNQLKRKILIKHKKLAEGSAYEEVPTSMMYSENDISNSIKNGILYLEDPVNHEWYPHYFVLTSSKIYYSEETSSDQGNEDEEEPKEVSSSTELHSNEKWFHGKLGAGRDGRHIAERLLTEYCIETGAPDGSFLVRESETFVGDYTLSFWRNGKVQHCRIHSRQDAGTPKFFLTDNLVFDSLYDLITHYQQVPLRCNEFEMRLSEPVPQTNAHESKEWYHASLTRAQAEHMLMRVPRDGAFLVRKRNEPNSYAISFRAEGKIKHCRVQQEGQTVMLGNSEFDSLVDLISYYEKHPLYRKMKLRYPINEEALEKIGTAEPDYGALYEGRNPGFYVEANPMPTFKCAVKALFDYKAQREDELTFIKSAIIQNVEKQEGGWWRGDYGGKKQLWFPSNYVEEMVNPVALEPEREHLDENSPLGDLLRGVLDVPACQIAIRPEGKNNRLFVFSISMASVAHWSLDVAADSQEELQDWVKKIREVAQTADARLTEGKIMERRKKIALELSELVVYCRPVPFDEEKIGTERACYRDMSSFPETKAEKYVNKAKGKKFLQYNRLQLSRIYPKGQRLDSSNYDPLPMWICGSQLVALNFQTPDKPMQMNQALFMTGRHCGYVLQPSTMRDEAFDPFDKSSLRGLEPCAISIEVLGARHLPKNGRGIVCPFVEIEVAGAEYDSTKQKTEFVVDNGLNPVWPAKPFHFQISNPEFAFLRFVVYEEDMFSDQNFLAQATFPVKGLKTGYRAVPLKNNYSEDLELASLLIKIDIFPAKENGDLSPFSGTSLRERGSDASGQLFHGRAREGSFESRYQQPFEDFRISQEHLADHFDSRERRAPRRTRVNGDNRL
# Variants of: B1
# Details: with fgfr1_human FGFR1, P11362
# Sequence of fgfr1_human FGFR1, P11362 (P11362 whole entry, looked up): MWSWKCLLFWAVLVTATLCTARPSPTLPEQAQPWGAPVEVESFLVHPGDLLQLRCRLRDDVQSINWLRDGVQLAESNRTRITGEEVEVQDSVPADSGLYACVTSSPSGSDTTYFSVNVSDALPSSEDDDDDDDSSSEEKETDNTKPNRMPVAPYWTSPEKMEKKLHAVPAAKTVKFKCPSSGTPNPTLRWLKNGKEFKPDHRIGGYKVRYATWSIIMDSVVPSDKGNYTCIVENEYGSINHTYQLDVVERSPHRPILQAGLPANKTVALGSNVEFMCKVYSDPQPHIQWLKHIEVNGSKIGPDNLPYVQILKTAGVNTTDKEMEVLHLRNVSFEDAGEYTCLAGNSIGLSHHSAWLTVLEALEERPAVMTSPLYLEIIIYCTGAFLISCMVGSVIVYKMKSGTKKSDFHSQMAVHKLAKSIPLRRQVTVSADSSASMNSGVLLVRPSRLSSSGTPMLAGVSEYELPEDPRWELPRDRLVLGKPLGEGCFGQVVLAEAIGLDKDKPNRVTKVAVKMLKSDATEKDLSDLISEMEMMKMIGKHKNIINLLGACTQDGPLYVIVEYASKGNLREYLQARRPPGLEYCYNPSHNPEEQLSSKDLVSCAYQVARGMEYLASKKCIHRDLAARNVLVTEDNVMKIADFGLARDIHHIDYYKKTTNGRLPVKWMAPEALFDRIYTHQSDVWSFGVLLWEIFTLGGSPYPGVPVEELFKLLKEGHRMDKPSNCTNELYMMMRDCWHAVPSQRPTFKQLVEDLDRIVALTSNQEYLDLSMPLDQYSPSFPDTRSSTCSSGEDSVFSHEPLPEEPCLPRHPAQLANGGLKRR
row,Variant,effect of a mutation on the interaction
1,R586L,disrupting interaction strength

# Variants of: B1
# Details: with fgfr1_human FGFR1, P11362
# Remark: another data set of the same source
row,Variant,effect of a mutation on the interaction
1,Y783F,increasing interaction strength

# From IntAct's records for PubMed 23063561
